Experiments:
[1] = tested on: human platelets (thrombin-induced aggregation); experiment: Thrombin-induced platelet aggregation assay; type: cell-based; conditions: for IC50 (estimated concentration which inhibits 50% of the aggregation): 0.5 U/mL human thrombin, 37° C., conjugate: average of 10 argatrobans/RSA used
Description: The conjugate was prepared according to the following protocol. A 15 μM solution of RSA in PBS was reacted with 200 μM argatroban-C6 NHS ester for 1 hour at room temperature. Sham samples consist of the RSA incubated for the same length of time at RT in 2% DMSO in PBS. Each of the samples was then concentrated to a final volume of 1.5 mL using Amicon Centricon 30 filtration/concentration devices. The concentrated samples were then desalted on Pierce's 5 ML Kwiksep excellulose plastic desalting columns. The excluded volumes containing RSA or argatroban-C6-RSA were then subjected to BCA microprotein estimation and lyophilization. In addition, these samples were analyzed by LC/MS, sandwich ELISA assays (described above) to measure thrombin binding and immunoblotting.
Platelets were purified from freshly drawn human blood diluted with the anticoagulant buffer ACD (9 mls of blood to 1 mL of buffer). The blood was centrifuged for 25 min at 200×g. The platelet-rich plasma (PRP) was recovered with a plastic pipette. The PRP was centrifuged for 15 min at 3,000×g in v-shaped plastic tubes. The supernatant, called platelet-poor plasma (PPP), was then removed and saved, and the platelets were resuspended in buffer A1 (35 mM citric acid, 103 mM NaCl, 5 mM each of glucose and KCl, 2 mM CaCl2, 1 mM […], 3.5 mg/mL BSA, 0.1 μM PGE1 and 0.3 U/mL of apyrase at pH 6.5). The resuspended platelets were washed 2 times with buffer A1. After the last wash, the platelets were resuspended in buffer B1 (137 mM NaCl, 2.6 mM KCL 12 mM NaHCO3, 0.3 mM NaH2 PO4, 3 mM CaCl2, 1 mM MgCl2, 5 mM glucose, 3.5 mg/mL BSA and […] apyrase at pH 7.4) at a density of 3×10^5 /μL. The platelets were maintained at room temperature until ready for use.
Various parameters relevant to platelet aggregation were obtained on a four channel aggregometer manufactured by AFFI BIO. In brief, the reaction chambers are warmed to 37° C. and are agitated at a rate of 1,200 rpm. Light is passed through the reaction chambers, with 300 μL of buffer B1 used to set the 100% transmittance level for each chamber. From a series of standardization experiments, it was determined that 0.5 U/mL of human thrombin (Sigma) is an optimal aggregating concentration of thrombin and is used to set. the 0% transmittance for the instrument. Standard conditions for the assay involve incubating 250 μL of the platelet suspension with or without 50 μL of inhibitor diluted in buffer in the reaction chambers for 60 seconds at 37° C. The value of transmittance is now set as 0%. After this measurement, thrombin is added to the reaction chambers (20 μl) and transmittance is measured for the next 6 minutes. Samples were performed in triplicate.

[2] = target: thrombin from human plasma (Homo sapiens, UniProt P00734); experiment: Km-based fluorogenic assay for inhibition of thrombin (Example 7); type: biochemical; parameters: from tissue; host or cells: human plasma; conditions: FIGS. 9 and 10
Description: Thrombin from human plasma was obtained from Enzyme System Products, Dublin, Calif., in glycerol:water 1:1, 11.4 mg/ml, 3800 U/mg, MW 36,700, and stored undiluted at -20° C. It was freshly diluted the day of use.
To dilute for the assay, 0.67 μl (25 Units) of thrombin was pipetted into 5 ml of 0.1 mg/ml BSA (from Pierce, Catalog No. 23209, BSA fraction V, a 2 mg/ml stock in saline with sodium azide), in cold PBS (GIBCO, Catalog No. 14190-136, without calcium chloride and magnesium chloride, pH 7.2) and briefly vortexed, yielding a stock of 5 mU thrombin/μl.
The substrate was N-tBOC-β-Benzyl-Asp-Pro-Arg-7-Amido4-Methylcoumarin HCl and was obtained from Sigma, Catalog No. B4028, Lot 122H0070, F.W. 770.3. Five mg was dissolved in […] DMSO for a 4 mM stock. The stock was stored in 200 μl aliquots at -20° C. in the dark.
An alternative substrate was N-tBOC-Val-Pro-Arg-7-Amido4-Methylcoumarin HCl and was obtained from Sigma, Catalog No. B-9385, Lot 53H0805, F.W. of free base 627.7. Five mg was dissolved in 1.863 ml DMSO for a 4 mM stock. The stock was stored in 200 μl aliquots at -20° C. in the dark.
The fluorescent standard was 7-Amido4-Methylcoumarin and was obtained from Aldrich, Catalog No. 25,737-0, MW 175.19. […]
Initial readings were taken to ensure exclusion of rogue wells with abnormally high backgrounds (λ excitation at 360 nm, bandwidth […], λ emission, 460 nm, bandwidth 40 nm). Then, 25 μl of a 10×stock of the putative inhibitor were added per well, mixed for 5 seconds and read kinetically for 10 minutes at ambient temperature to assess background interference and/or any increase in hydrolysis of substrate due to inhibitor.
The thrombin assay was then initiated by adding 25 μl of thrombin/well with a multichannel pipettor and mixed for 5 seconds. The appearence of the fluorescent product (free 7-amido-4-methylcoumarin released from the peptide by thrombin) was followed simultaneously in 48 wells (one reading per minute for 30 minutes, λ excitation at 360 nm, bandwidth 40 nm, λ emission, 460 nm, bandwidth 40 nm). […]

thrombin = experiment: Sandwich ELISA for thrombin binding of conjugated proteins (anti-thrombin detection); conditions: hGPA conjugate, capture mAb 5F4, FIG. 4
Description: (§1) The plates were incubated at room temperature for 30 minutes and washed as above.
as §1
Next, 100 μl/well of ABC-HRP (Vector, catalog no. PK4000) was added, each component diluted 1:500 in PBS, pH 7.4, with 0.1% TWEEN 20 and incubated 30 minutes at room temperature prior to use.

[3] = tested on: anti-KLH-argatroban antibody; experiment: Sandwich ELISA using polyclonal anti-KLH-argatroban antibodies; type: binding, rabbit; conditions: for concentration down to which detected: hGPA conjugate
Description: The reaction was quenched by adding hydroxylamine, pH 7.8 to a final concentration of 50 mM and incubating at room temperature for 10 minutes.
Rabbit anti-HSA monoclonal antibody (Boehringer/Mannheim, catalog no. 605001) diluted 1:5000 in PBS, pH 7.4 or mouse anti-hGPA monoclonal antibody (BioAtlan-tic/CRTS, mAb 5F4, diluted to 10 μg/ml in 0.1 M sodium acetate, pH 4.5 or mAb 3C10 diluted 1:500 or mAb 3E4 diluted 1:1000 in PBS, pH 7.4 - each antibody recognizes a different epitope of hGPA), were used to capture respective proteins by aliquotting 100 μl/well into a NUNC Maxisorp F96 plate (catalog no. 439454). The plates were incubated overnight at 4° C., were then blocked by the addition of 200 μl/well of 1% BSA/PBS and incubated at room temperature for 1 hour. The plates were then washed 5 times by submersion in PBS, pH 7.4.
Samples were incubated on the plates for 2 hours at room temperature and then were washed as above.
The plates were then incubated at room temperature for 30 minutes and washed as above.
Biotinylated goat anti-rabbit IgG (Vector, catalog no. BA1000) was diluted 1:1000 in 1% BSA/PBS, pH 7.4 and 100 μl/well added to all wells. The plates were incubated at room temperature for 30 minutes and washed as above.
Next, 100 μl/well of ABC-HRP (Vector, catalog no. PK4000) was added, each component diluted 1:500 in PBS, pH 7.4, with 0.1% TWEEN 20 and incubated 30 minutes at room temperature prior to use. The plates were then washed 10 times by submersion in PBS, pH 7.4.

Molecule	IC50 (estimated concentration which inhibits 50% of the aggregation) [1]	interference with platelet aggregation ([1]; even at 150 μM)	thrombin inhibition [2]	IC50 (estimated concentration which inhibits 50% of the aggregation) ([1]; listed as Free argatroban) [µM]	concentration giving a detectable signal (binding of thrombin) (thrombin)	increase of OD490 versus prequenched ester or protein alone ([3]; HSA and hGPA samples, FIGS. 5-8)	concentration down to which detected ([3]; goat anti-rabbit erythrocyte capture) [ng/mL]	concentration down to which detected ([3]; mouse anti-hGPA capture) [ng/mL]	detection of hGPA-argatroban derivative ([3]; hGPA, 3C10 mAb, FIG. 7)	detection of hGPA-argatroban derivative ([3]; hGPA, 3E4 mAb, FIG. 8)	concentration at which a significant signal above background was detected ([3]; hGPA, 5F4 mAb, FIG. 6) [ng/mL]
RSA sham: RSA incubated for the same length of time at RT in 2% DMSO in PBS	> 150 µM	did not interfere with platelet aggregation even at 150 μM	not inhibitory at any concentration assayed								
CC1CNc2c(cccc2S(=O)(=O)N[C@@H](CCCNC(=N)N)C(=O)N2CC[C@@H](C)C[C@@H]2C(=O)O)C1 (stereo partly drawn) [argatroban, reference compound]	approximately 0.1 μM			0.1 to 0.15							
hGPA reacted with argatroban-C6 NHS ester: human glycophorin A protein reacted with argatroban-C6 NHS ester (YL-015-35) (conjugate, UniProt P02724 20-150, looked up, argatroban-C6 conjugate) Glycophorin-A: LSTTEVAMHTSTSSSVTKSYISSQTNDTHKRDTYAATPRAHEVSEISVRTVYPPEEETGERVQLAHHFSEPEITLIIFGVMAGVIGTILLISYGIRRLIKKSPSDVKPLPSPDTDVPLSSVEIENPETSDQ					approximately 30 ng/ml	significant increase of OD490	60	30	at lower levels	at lower levels	~12

— patent US6087375A, “Methods of treating or preventing thromboses” (priority 1999, dated 2000)
